{"source": "paper doi:10.1101/2020.10.06.327742", "about": "(bioRxiv, 2020)", "assay_in_all_cases": "fluorescence polarisation", "key": {"[1]": {"biological_target": "FITC-labelled C-terminal peptide of ACE2 (FITC-…-COO-) (human)"}, "[2]": {"biological_target": "FITC-labelled ACE2 peptide with the predicted PTB binding motif (FITC-…-NH2) (human)"}, "[3]": {"biological_target": "AP2 μ2 (human unless Table 5 states otherwise (cells not shown))"}, "SHANK1 PDZ": {"biological_target": "T1, SHANK1 PDZ (human unless Table 5 states otherwise …, UniProt Q9Y566 663-757)", "T1 sequence": "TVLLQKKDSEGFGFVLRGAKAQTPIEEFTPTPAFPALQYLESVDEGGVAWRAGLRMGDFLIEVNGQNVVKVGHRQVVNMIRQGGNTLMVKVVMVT"}}, "note": "The star is where a group is joined. FITC = O=C1OC2(c3ccc(O)cc3Oc3cc(O)ccc32)c2ccc(NC(=S)*)cc21", "data": [{"molecule": "NHERF3 PDZ1 (domain or fragment)", "values": [{"measurement": "Kd", "setting": "[1]", "result": 8, "unit": "µM"}]}, {"molecule": "SNX17 FERM domain (domain or fragment)", "values": [{"measurement": "Kd", "setting": "[2]", "result": "200 to 300", "unit": "µM"}]}, {"molecule": "unphosphorylated ACE2 peptide (cytoplasmic tail region with the predicted AP2 μ2, NCK SH2 and ATG8 binding motifs)", "values": [{"measurement": "Ki", "setting": "[3]", "result": 101, "unit": "µM"}]}, {"molecule": "{FITC}-QNTDDVQTSF-OH", "note": "[FITC-labelled C-terminal peptide of ACE2 (FITC-QNTDDVQTSF-COO-)]", "values": [{"measurement": "Kd", "setting": "SHANK1 PDZ", "result": 14, "unit": "µM"}]}]}
